According to PMC2713827, “Characterization of a Lamellocyte Transcriptional Enhancer Located within the misshapen Gene of Drosophila melanogaster”:

Target: T1, dFos DNA-binding domain;dJun DNA-binding domain (Drosophila melanogaster;Drosophila …, UniProt P21525;P18289 418-481;212-275, |)
T1 sequence 1: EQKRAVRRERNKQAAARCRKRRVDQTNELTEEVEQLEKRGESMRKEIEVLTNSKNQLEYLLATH
T1 sequence 2: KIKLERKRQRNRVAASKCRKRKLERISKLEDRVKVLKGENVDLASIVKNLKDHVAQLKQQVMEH
Experiment: EMSA; 10 mM Tris-HCl pH 8.0, 10 mM DTT, 2.5 mM MgCl2, 10% glycerol, poly(dI-dC), BSA, 100 ng dJun and dFos, 1,000 cpm 32P probe; temperature not stated
Details: protein: recombinant;recombinant; tags: 6xHis;6xHis; copies: 1;1; label: 32P

B1: hMTII wt AP-1 probe (dsDNA)
DNA 1: GAGCCGCAAGTGACTCAGCGCGGGGCGTGTGCAG
DNA 2: CTGCACACGCCCCGCGCTGAGTCACTTGCGGCTC
binding result: binds
